Article PMC2865522, “Crystal Structure of HIV-1 gp41 Including Both Fusion Peptide and Membrane Proximal External Regions” (PLoS Pathogens, 2010)

Biological target: T1, gp41 HR1 fragment, Ala541 to Leu581 (chain of gp41_(541–665)) (HIV-1 HXB2 group M subtype B, UniProt P04578 541-581)
T1 construct: HIV-1 HXB2 (group M subtype B) envelope glycoprotein, gp41 subunit, residues Ala541 to Leu581 (heptad repeat 1); also called core fragment HR1; source: E. coli Rosetta (DE3), fusion protein; pellets of HR1 and HR2 expressing bacteria mixed before lysis; complex purified (amylose, TEV digestion, Ni2+, anion exchange, SEC); not shown: Flag-tag (DDDDK), N-terminal, kept
Assay: SEC; purified complexes on a Superdex 200 (S200) column in buffer A (0.02 M Tris pH 8.0, 0.1 M NaCl); SDS-PAGE of the peak; the complexes were assembled by mixing bacteria before lysis and co-purified
Settings: both partners purified

T1 sequence (P04578 541-581): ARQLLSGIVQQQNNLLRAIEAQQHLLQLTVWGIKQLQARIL

B1: gp41 HR2 fragment, Met628 to Lys665 as printed (chain of gp41_(541–665)) (domain or fragment)
chain: MEWDREINNYTSLIHSLIEESQNQQEKNEQELLELDK
notes: HIV-1 HXB2 (group M subtype B) envelope glycoprotein, gp41 subunit, heptad repeat 2; also called core fragment HR2; source: E. coli Rosetta (DE3), fusion protein; pellets of HR1 and HR2 expressing bacteria mixed before lysis (HR2 in excess); complex purified (amylose, TEV digestion, Ni2+, anion exchange, SEC); not shown: Flag-tag (DDDDK), N-terminal, kept
  binding result: binds
